{"source": "patent US20240252614A1", "about": "(Pfizer, published 2024)", "key": {"hMPV105": {"molecular_target": "T1, hMPV105 (hMPV B, UniProt Q6WB98 19-102)", "T1 construct": "G239A", "assay": "BLI, 53C stress", "experimental": "(§1) All measurements were conducted at 30° C. temperature in 96-well black plates (Corning, Corning, NY) with a final volume of 240 μL per well at a constant agitation rate of 1000 RPM.\n(§2) Conformation integrity of hMPV B F protein mutants were evaluated by a thermal stress experiment. Crude cell culture supernatants were normalized based on the results of the titer quantitation and then incubated for 1 hour at room temperature and two higher temperatures. For the testing of hMPV B single mutants, the two temperatures were 53° C. and 56° C. After the incubation, the protein mutants were probed with prefusion specific monoclonal antibody hMPV-2 by OCTET HTX. Anti-Human IgG Fc Capture (AHC) biosensors were first equilibrated in PB before being dipped into more PB for to establish the initial baseline. Biosensors were incubated with hMPV-2 before being equilibrated in PB to establish the experimental baseline. The mAb-bound biosensors were then dipped into the thermal stresses cell culture supernatants for 5 minutes."}, "hMPV108": {"molecular_target": "T2, hMPV108 (hMPV B, UniProt Q6WB98 19-102)", "T2 construct": "T365I", "assay": "BLI, 53C stress", "experimental": "as §1, §2"}, "hMPV106": {"molecular_target": "T3, hMPV106 (hMPV B, UniProt Q6WB98 19-102)", "T3 construct": "T49I", "assay": "BLI, 53C stress", "experimental": "as §1, §2"}, "hMPV100": {"molecular_target": "T4, hMPV100 (hMPV B, UniProt Q6WB98 19-102)", "T4 construct": "T411C-Q434C", "assay": "BLI, 53C stress", "experimental": "as §1, §2"}, "hMPV104": {"molecular_target": "T5, hMPV104 (hMPV B, UniProt Q6WB98 19-102)", "T5 construct": "A459P", "assay": "BLI, 53C stress", "experimental": "as §1, §2"}, "hMPV103": {"molecular_target": "T6, hMPV103 (hMPV B, UniProt Q6WB98 19-102)", "T6 construct": "E146C-T160C", "assay": "BLI, 53C stress", "experimental": "as §1, §2"}, "hMPV102": {"molecular_target": "T7, hMPV102 (hMPV B, UniProt Q6WB98 19-102)", "T7 construct": "L141C-A161C", "assay": "BLI, 53C stress", "experimental": "as §1, §2"}, "hMPV B F WT Control": {"molecular_target": "hMPV B F WT Control (hMPV B, UniProt Q6WB98 19-102)", "assay": "BLI, 53C stress", "experimental": "as §1, §2"}, "hMPV101": {"molecular_target": "T8, hMPV101 (hMPV B, UniProt Q6WB98 19-102)", "T8 construct": "A140C-S149C", "assay": "BLI, 53C stress", "experimental": "as §1, §2"}, "PIV1068": {"molecular_target": "T9, PIV1068 (PIV1)", "T9 construct": "A466I, S473I, A480I, Q92L, G134A", "assay": "BLI, no stress;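 further: binding of thermally stressed PIV1 F mutant supernatant to mAb on AHC biosensors for 5 min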", "experimental": "(§3) The OCTET HTX (Sartorius, Gottingen, Germany) instrument was used to evaluate the expression and conformational integrity for each mutant. All measurements were conducted at 30° C. temperature in 96-well black plates (Corning, Corning, NY) with a final volume of 240 μL per well at a constant agitation rate of 1000 RPM.\n(§4) Conformation integrity of PIV1 F protein mutants were evaluated by a thermal stress experiment. Crude cell culture supernatants were normalized based on the results of the titer quantitation and then incubated for 1 hour at room temperature and two higher temperatures. For the initial testing of PIV1 mutants, the two temperatures were 50° C. and 53° C. […] Anti-Human IgG Fc Capture (AHC) biosensors were first equilibrated in PB for before being dipped into more PB to establish the initial baseline. […] The mAb-bound biosensors were then dipped into the thermal stresses cell culture supernatants for 5 minutes."}, "PIV1047": {"molecular_target": "T10, PIV1047 (PIV1)", "T10 construct": "F113G, F114S, Q92C-G134C, A466L, S473L, A480L", "assay": "BLI, no stress", "experimental": "as §3, §4"}, "PIV1052": {"molecular_target": "T11, PIV1052 (PIV1)", "T11 construct": "Q92C-G134C, A466V, S473V; also called PV1052", "assay": "BLI, no stress", "experimental": "as §3, §4"}, "PIV1059": {"molecular_target": "T12, PIV1059 (PIV1)", "T12 construct": "F113G, F114S, A466L, S473L, A480L, G134A, Q92L", "assay": "BLI, no stress", "experimental": "as §3, §4"}, "PIV1053": {"molecular_target": "T13, PIV1053 (PIV1)", "T13 construct": "F113G, F114S, A466L, S473L, A480L, G134A", "assay": "BLI, no stress", "experimental": "as §3, §4"}, "PIV1063": {"molecular_target": "T14, PIV1063 (PIV1)", "T14 construct": "A466L, S473L, A480L, Q92A, G134L", "assay": "BLI, no stress", "experimental": "as §3, §4"}, "PIV1055": {"molecular_target": "T15, PIV1055 (PIV1)", "T15 construct": "A466L, S473L, G134A", "assay": "BLI, no stress", "experimental": "as §3, §4"}, "PIV1050": {"molecular_target": "T16, PIV1050 (PIV1)", "T16 construct": "F113G, F114S, Q92C-G134C, A466V, S473V, A480V", "assay": "BLI, no stress", "experimental": "as §3, §4"}, "PIV1051": {"molecular_target": "T17, PIV1051 (PIV1)", "T17 construct": "Q92C-G134C, A466V, S473V, A480V", "assay": "BLI, no stress", "experimental": "as §3, §4"}, "PIV1060": {"molecular_target": "T18, PIV1060 (PIV1)", "T18 construct": "Q92L, G134A, A466L, S473L, A480L", "assay": "BLI, no stress", "experimental": "as §3, §4"}, "PIV1064": {"molecular_target": "T19, PIV1064 (PIV1)", "T19 construct": "F113G, F114S, Q92C-G134C, A466I, S473I, A480L", "assay": "BLI, no stress", "experimental": "as §3, §4"}, "PIV1058": {"molecular_target": "T20, PIV1058 (PIV1)", "T20 construct": "A466L, S473L, Q92A, G134A", "assay": "BLI, no stress", "experimental": "as §3, §4"}, "PIV1066": {"molecular_target": "T21, PIV1066 (PIV1)", "T21 construct": "A466I, S473I, A480L, Q92L, G134A", "assay": "BLI, no stress", "experimental": "as §3, §4"}, "PIV1062": {"molecular_target": "T22, PIV1062 (PIV1)", "T22 construct": "F113G, F114S, A466L, S473L, A480L, Q92A, G134L", "assay": "BLI, no stress", "experimental": "as §3, §4"}, "PIV1056": {"molecular_target": "T23, PIV1056 (PIV1)", "T23 construct": "F113G, F114S, A466L, S473L, A480L, Q92A, G134A", "assay": "BLI, no stress", "experimental": "as §3, §4"}, "PIV1057": {"molecular_target": "T24, PIV1057 (PIV1)", "T24 construct": "A466L, S473L, A480L, Q92A, G134A", "assay": "BLI, no stress", "experimental": "as §3, §4"}, "PIV1061": {"molecular_target": "T25, PIV1061 (PIV1)", "T25 construct": "Q92L, G134A, A466L, S473L", "assay": "BLI, no stress", "experimental": "as §3, §4"}, "PIV1054": {"molecular_target": "T26, PIV1054 (PIV1)", "T26 construct": "A466L, S473L, A480L, G134A", "assay": "BLI, no stress", "experimental": "as §3, §4"}, "PIV1048": {"molecular_target": "T27, PIV1048 (PIV1)", "T27 construct": "Q92C-G134C, A466L, S473L, A480L", "assay": "BLI, no stress", "experimental": "as §3, §4"}, "PIV1067": {"molecular_target": "T28, PIV1067 (PIV1)", "T28 construct": "F113G, F114S, Q92C-G134C, A466I, S473I, A480I", "assay": "BLI, no stress", "experimental": "as §3, §4"}, "[1]": {"molecular_target": "T29, PIV1 F literature prefusion comparison (PIV1)", "T29 construct": "F113G, F114S, A466I, S473I (Stewart-Jones et al. 2018)", "assay": "BLI, no stress", "experimental": "as §3, §4"}, "PIV1049": {"molecular_target": "T30, PIV1049 (PIV1)", "T30 construct": "Q92C-G134C, A466L, S473L", "assay": "BLI, no stress", "experimental": "as §3, §4"}, "PIV1065": {"molecular_target": "T31, PIV1065 (PIV1)", "T31 construct": "F113G, F114S, Q92C-G134C, A466I, S473I", "assay": "BLI, no stress", "experimental": "as §3, §4"}, "PIV1044": {"molecular_target": "T32, PIV1044 (PIV1)", "T32 construct": "Q92L", "assay": "BLI, no stress", "experimental": "as §1, §4"}, "[2]": {"molecular_target": "T33, stabilized hPIV1 F protein trimer in pre-fusion conformation (human parainfluenza virus 1)", "T33 construct": "also called preF-hPIV1; HPIV1 pre-fusion F protein", "assay": "BLI, mAb captured, F protein at 50 nM"}, "[3]": {"molecular_target": "stabilized hPIV3 F protein trimer in pre-fusion conformation (human parainfluenza virus 3)", "assay": "BLI, mAb captured, F protein at 50 nM"}}, "data": [{"binder": "hMPV-2 mAb (antibody, V domains shown, human IgG1) VH: QVQLQQSGAEVKKPGASVKVSCKASGYTFTSYGISWVRQAPGQGLEWMGWISGYNGNTNYAQTFQGTFTMTTDTSTSTAYMELRRLRSGDTAVYYCARDRYYASGSYNGMDVWGQGTTVTVSS VL: QSALTQPPSASGAPGQRVTVSCSGSSSNVGSSSVYWYQQLPGTAPKLLIYRNNQRPSGVPDRFSGSKSGTSASLAISGLRSEDEADYYCAAWDDSLSGWVFGGGTKLTVLG", "values": [{"measurement": "Response Shift", "setting": "hMPV105", "value": 0.785, "unit": "nm"}, {"measurement": "Response Shift", "setting": "hMPV108", "value": 0.802, "unit": "nm"}, {"measurement": "Response Shift", "setting": "hMPV106", "value": 0.828, "unit": "nm"}, {"measurement": "Response Shift", "setting": "hMPV100", "value": 0.854, "unit": "nm"}, {"measurement": "Response Shift", "setting": "hMPV104", "value": 0.336, "unit": "nm"}, {"measurement": "Response Shift", "setting": "hMPV103", "value": 0.588, "unit": "nm"}, {"measurement": "Response Shift", "setting": "hMPV102", "value": 0.572, "unit": "nm"}, {"measurement": "Response Shift", "setting": "hMPV B F WT Control", "value": 0.418, "unit": "nm"}, {"measurement": "Response Shift", "setting": "hMPV101", "value": 0.716, "unit": "nm"}]}, {"binder": "PIV1-8 mAb (antibody, V domains shown, human IgG1; also called hPIV1-8 mAb; hPIV1-8) VH: QVQLVQSGAEVKKPGSSVKVSCEASGGTFSNYVISWVRQAPGQGLEWMGGIIPVFATAKYAQKFQGRVTIIADQSTNTAYLELSSLRSDDTAVYFCASVDSGGTWWDAFAIWGQGTMVTVSS VL: QAVVTQPRSVSGSPGQAVTISCTGTSSDVGGYNYVSWYQHHPGKAPKLIIYDVTKRPSGVPDRFSGSKSGNTASLTISGLQTEYEADYYCCSYAGSYTLVFGGGTKLTVLG", "values": [{"measurement": "Response Shift", "setting": "PIV1068", "value": 0.628, "unit": "nm"}, {"measurement": "Response Shift", "setting": "PIV1047", "value": 0.79, "unit": "nm"}, {"measurement": "Response Shift", "setting": "PIV1052", "value": 0.67, "unit": "nm"}, {"measurement": "Response Shift", "setting": "PIV1059", "value": 0.841, "unit": "nm"}, {"measurement": "Response Shift", "setting": "PIV1053", "value": 0.857, "unit": "nm"}, {"measurement": "Response Shift", "setting": "PIV1063", "value": -0.116, "unit": "nm"}, {"measurement": "Response Shift", "setting": "PIV1055", "value": 0.757, "unit": "nm"}, {"measurement": "Response Shift", "setting": "PIV1050", "value": 0.848, "unit": "nm"}, {"measurement": "Response Shift", "setting": "PIV1051", "value": 0.725, "unit": "nm"}, {"measurement": "Response Shift", "setting": "PIV1060", "value": 0.584, "unit": "nm"}, {"measurement": "Response Shift", "setting": "PIV1064", "value": 0.912, "unit": "nm"}, {"measurement": "Response Shift", "setting": "PIV1058", "value": 0.688, "unit": "nm"}, {"measurement": "Response Shift", "setting": "PIV1066", "value": 0.642, "unit": "nm"}, {"measurement": "Response Shift", "setting": "PIV1062", "value": 0.619, "unit": "nm"}, {"measurement": "Response Shift", "setting": "PIV1056", "value": 0.739, "unit": "nm"}, {"measurement": "Response Shift", "setting": "PIV1057", "value": 0.718, "unit": "nm"}, {"measurement": "Response Shift", "setting": "PIV1061", "value": 0.619, "unit": "nm"}, {"measurement": "Response Shift", "setting": "PIV1054", "value": 0.764, "unit": "nm"}, {"measurement": "Response Shift", "setting": "PIV1048", "value": 0.737, "unit": "nm"}, {"measurement": "Response Shift", "setting": "PIV1067", "value": 0.849, "unit": "nm"}, {"measurement": "Response Shift", "setting": "[1]", "value": 0.709, "unit": "nm"}, {"measurement": "Response Shift", "setting": "PIV1049", "value": 0.636, "unit": "nm"}, {"measurement": "Response Shift", "setting": "PIV1065", "value": 0.809, "unit": "nm"}, {"measurement": "Response Shift", "setting": "PIV1044", "value": 0.162, "unit": "nm"}, {"measurement": "Binding response BLI", "setting": "[2]", "value": 1.96, "unit": "nm"}, {"measurement": "Binding response BLI", "setting": "[3]", "value": -0.052, "unit": "nm"}]}]}
